According to patent US20230212279A1, “TREATMENT AND PREVENTION OF DISEASE CAUSED BY TYPE IV COLLAGEN DYSFUNCTION” (Singapore Health Services PTE, LTD., priority 2020, published 2023):
Entries after “also recorded” stand apart in the source; their conditions may differ.

Tests used:
[1] = tested on: rheumatoid synovial cells; conditions: rheumatoid synovial cells upon treatment; cited from earlier work
Col4a3-/- mice [2] = conditions: cited from earlier work
[3] = biological target: T1, mouse IL11 receptor IL11RA1 (mouse, UniProt Q64385 24-432); test: immunohistochemistry on mouse kidney sections (wild-type vs Il11ra1-/-)
T1 construct: whole, on cells; Endogenous protein detected in tissue sections; also called IL-11Rα
T1 sequence (looked up): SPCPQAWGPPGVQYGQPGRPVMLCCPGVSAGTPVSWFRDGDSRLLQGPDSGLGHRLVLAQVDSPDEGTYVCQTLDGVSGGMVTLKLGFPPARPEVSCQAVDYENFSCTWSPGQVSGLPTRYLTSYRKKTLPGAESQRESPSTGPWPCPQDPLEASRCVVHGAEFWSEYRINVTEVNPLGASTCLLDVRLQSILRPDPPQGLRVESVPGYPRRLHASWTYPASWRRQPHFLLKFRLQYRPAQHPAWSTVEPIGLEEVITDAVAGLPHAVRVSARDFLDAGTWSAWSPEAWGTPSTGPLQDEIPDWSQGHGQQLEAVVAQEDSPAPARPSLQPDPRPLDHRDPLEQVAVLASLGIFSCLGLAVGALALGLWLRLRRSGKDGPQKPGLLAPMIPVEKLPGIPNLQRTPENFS
Description: FIGS. 2A to 2E. […] (2A-2C) Renal (2A) II11 RNA and (2B-2C) IL11 protein expression in wildtype and Col4a3^{-/-} mice. (2D) Immunohistochemistry staining of IL11RA with anti-IL11RA (X209) or IgG (11E10) as control on the kidneys of wild-type and II11ra1^{-/-} mice (scale bars, 20 μm). (2E) Comparison of II11ra1 and gp130 expression in mouse kidney cells based on single cell transcriptomic analysis by Park et. al.¹⁶. (2A) Data are shown as box-and-whisker with median (middle line), 25th-75th percentiles (box) and min-max values (whiskers), (2C) data are shown as mean±SD; 2-tailed Student's t-test. FC: fold change.
(§1) Kidneys were fixed in 10% neutral-buffered formalin (NBF), paraffinized, cut into 7 μm sections, incubated with primary antibodies overnight and visualized using an ImmPRESS HRP anti-rabbit IgG polymer detection kit (MP-7401, Vector Laboratories) with ImmPACT DAB Peroxidase Substrate (SK-4105, Vector Laboratories). Quantification of WT^+ve cells were performed in a blinded fashion from 4 images (200× field)/kidney (n=3-4 kidneys/group).

Col4a3-/- mice [4] = test: Treatment study in Col4a3-/- mice: body weight and kidney weight; assay type: in vivo, mouse
Description: (§2) Col4a3^−/− (Col4a3^tm1Dec) mice were purchased from The Jackson Laboratory (https://www.jax.org/strain/002908). Mice were housed in temperatures of 21-24° C. with 40-70% humidity on a 12 h light/12 h dark cycle and provided with food and water ad libitum. For treatment study, Col4a3^−/− were administered 20 mg/kg of anti-IL11 (X203) or IgG isotype control (11E10) by intraperitoneal (IP) injection starting from 6 weeks of age twice a week for 2.5 weeks; wild-type littermates were used as controls. Mice were sacrificed for blood and kidney collection when they were 8.5-week-old. For lifespan study, IgG/X203 was administered to 6-week-old Col4a3^−/− (2×/week) until death ensued.

[5] = tested on: kidneys of Col4a3-/- mice; test: Treatment study: Wilms' Tumor 1 immunohistochemistry (podocytes); assay type: in vivo, mouse; conditions: 20 mg/kg IP 2x/week from 6 weeks for 2.5 weeks, vs IgG
Description: as §2, §1

[6] = tested on: kidneys of Col4a3-/- mice; test: Treatment study: kidney fibrosis (renal collagen content, Masson's Trichrome staining); assay type: in vivo, mouse; conditions: 20 mg/kg IP 2x/week from 6 weeks for 2.5 weeks; vs IgG
Description: as §2
Kidney tissues were fixed for 48 hours at RT in 10% neutral-buffered formalin (NBF), dehydrated, embedded in paraffin, and sectioned at 7 μm. Transverse kidney sections were then stained with Masson's Trichrome according to standard protocol. Images of the sections were captured by light microscopy and blue-stained fibrotic areas were semi-quantitatively determined with Image-J software (color deconvolution-Masson Trichrome) from the whole kidney area (100× field, n=4 kidneys/group). Treatment and genotypes were not disclosed to investigators performing the histology and generating semi-quantitative readouts.

[7] = tested on: mice homozygous for the Col4a3tm1Dec mutation; test: Survival in mouse model of Alport syndrome (Example 1); assay type: in vivo; conditions: 20 mg/kg intraperitoneal, biweekly, from 6 weeks of age until mortality
Description: 129-Col4a3^tm1Dec/J mice were obtained from The Jackson Laboratory (Stock No:002908; COL4A3 KO). The mice comprise the Co/4a3^tm1Dec mutation described e.g. in Cosgrove et al., Genes Dev. (1996) 10:2981-2992, which is hereby incorporated by reference in its entirety. 129-Col4a3^tm1Dec/J mice comprise a targeted mutation to Col4a3, resulting in progressive glomerulonephritis with microhematuria and proteinuria, and mice homozygous for the mutation typically die at about 8.5 weeks.
From 6 weeks of age, mice homozygous for the Co/4a3^tm1Dec mutation were administered biweekly by intraperitoneal injection of 20 mg/kg of Enx203, or an isotype-matched control antibody, until mortality.

[8] = tested on: kidneys of Col4a3-/- mice; test: Treatment study: renal mRNA expression by qPCR; assay type: in vivo, mouse; conditions: 20 mg/kg IP 2x/week from 6 weeks for 2.5 weeks
Description: as §2
Total RNA was extracted from snap-frozen kidney tissues using Trizol (Invitrogen) followed by RNeasy column (Qiagen) purification. cDNAs were synthesized with iScript™ cDNA synthesis kit (Bio-Rad) according to manufacturer's instructions. Gene expression analysis was performed on duplicate samples with either TaqMan (Applied Biosystems) or fast SYBR green (Qiagen) technology using StepOnePlus™ (Applied Biosystem) over 40 cycles. Expression data were normalized to GAPDH mRNA expression and fold change was calculated using 2^−ΔΔct method. The sequences of specific TaqMan probes and SYBR green primers are available upon request.

Col4a3-/- mice [9] = test: Treatment study: renal function by colorimetric assays (BUN, creatinine, urinary albumin:creatinine); assay type: in vivo, mouse; conditions: 20 mg/kg 2x/week from week 6; study end 8.5 weeks of age; vs IgG
Description: as §2
The levels of blood urea nitrogen (BUN) and creatinine in mouse serum were measured using Urea Assay Kit (ab83362, Abcam) and Creatinine Assay Kit (ab65340, Abcam), respectively. Urine albumin and creatinine levels were measured using Mouse Albumin ELISA kit (ab108792, Abcam) and Creatinine Assay Kit (ab204537, Abcam), respectively. All ELISA and colorimetric assays were performed according to the manufacturer's protocol.

[10] = tested on: kidneys of Col4a3-/- mice; test: Treatment study: Western blot of kidney protein extracts; assay type: in vivo, mouse; conditions: 20 mg/kg IP 2x/week from 6 weeks for 2.5 weeks; vs IgG
Description: as §2
Western blot was carried out on total protein extracts from mouse kidney tissues. Kidneys were lysed in radioimmunoprecipitation assay (RIPA) buffer containing protease and phosphatase inhibitors (Thermo Scientifics), followed by centrifugation to clear the lysate. Protein concentrations were determined by Bradford assay (Bio-Rad). Protein lysates were separated by SDS-PAGE, transferred to PVDF membrane, and subjected to immunoblot analysis for various antibodies as outlined in the main text, figures, or and/or figure legends. Proteins were visualized using the ECL detection system (Pierce) with the appropriate secondary antibodies: anti-rabbit HRP or antimouse HRP.

Col4a3-/- mice [11] = test: Lifespan study in Col4a3-/- mice (Example 2); assay type: in vivo, mouse; conditions: 20 mg/kg 2x/week from 6 weeks of age until death
Description: as §2
Statistical analyses were performed using GraphPad Prism software (version 8). Statistical significance between control and experimental groups were analysed by twosided Student's t tests or by one-way ANOVA as indicated in the figure legends. P values were corrected for multiple testing according to Tukey when several conditions were compared to each other within one experiment. Comparison analysis for two parameters from two different groups were performed by two-way ANOVA. Survival curves were analyzed by Gehan-Breslow-Wilcoxon test. The criterion for statistical significance was P<0.05.

[12] = treatment of 4-week-old mice, prior to onset of proteinuria and tubulointerstitial fibrosis

## COc1ccc2c(c1)c(CC(=O)O)c(C)n2C(=O)c1ccc(Cl)cc1 [indomethacin, reference compound]
[1]
  expression of IL-11: reduction

## CCOC(=O)[C@H](CCc1ccccc1)N[C@@H](C)C(=O)N1[C@H](C(=O)O)C[C@@H]2CCC[C@@H]21 [ramipril]
Col4a3-/- mice [2]; treatment delayed until after proteinuria was established (6-week-old mice)
  effect of delayed treatment: ineffective; also recorded: no beneficial effect
Col4a3-/- mice [2]; [12]
  kidney dysfunction: attenuated
  lifespan: prolonged

B1: interferon-gamma: interferon-gamma (IFNγ) (protein, UniProt P01579 24-161, looked up)
Interferon gamma: QDPYVKEAENLKKYFNAGHSDVADNGTLFLGILKNWKEESDRKIMQSQIVSFYFKLFKNFKDDQSIQKSVETIKEDMNVKFFNSNKKKRDDFEKLTNYSVTDLNVQRKAIHELIQVMAELSPAAKTGKRKRSQMLFRG
[1]
  expression of IL-11: reduction

B2: anti-IL11RA antibody X209 (antibody, V domains shown)
VH: QVQLQQPGAELVRPGSSVKLSCKASGYTFTNYWMHWLKQRPVQGLEWIGNIGPSDSKTHYNQKFKDKATLTVDKSSSTAYMQLNSLTSEDSAVYYCARGDYVLFTYWGQGTLVTVSA
VL: DIVLTQSPATLSLSPGERATLSCRASQSISNNLHWYQQKSHEAPRLLIKYASQSISGIPARFSGSGSGTDFTLSFSSLETEDFAVYFCQQSYSWPLTFGQGTKLEIK
notes: also called Enx209; anti-IL11RA (X209, Aldevron)
[3]
  binding result: binds

B3: X203: mouse anti-mouse IL-11 IgG, neutralizing IL11 antibody; VH SEQ ID NO:22, VL SEQ ID NO:23 (antibody, V domains shown)
VH: EVQLQQSGPELVKPGASVKIPCKASGYTFTDYNMDWVKQSHGKSLEWIGDINPHNGGPIYNQKFTGKATLTVDKSSSTAYMELRSLTSEDTAVYYCARGELGHWYFDVWGTGTTVTVSS
VL: DIVLTQSPASLAVSLGQRATISCRASKSVSTSGYSYIHWYQQKPGQPPKLLIYLASNLDSGVPARFSGSGSGTDFTLNIHPVEEEDAATYYCQHSRDLPPTFGGGTKLEIK
Col4a3-/- mice [4]; 20 mg/kg IP 2x/week from 6 weeks for 2.5 weeks, vs IgG
  kidney mass: preserved
Col4a3-/- mice [4]; 20 mg/kg IP 2x/week from 6 weeks of age for 2.5 weeks, end of study, IgG control 30%, P=0.0003
  total body weight loss, as percentage of starting body weight: 17%
[5]
  Wilms' Tumor 1 (WT1) staining: greater staining
[5]; blinded quantification
  number of WT1-positive cells (podocytes): restored towards normal; also recorded: significant (P=0.0002) restoration
[6]
  kidney fibrosis by biochemical and histological assessments: significantly less
[7]
  increase in survival relative to mice treated with isotype-matched control antibody: up to 40%
[8]; vs IgG
  CC chemokine CcI2 mRNA: diminished
  CC chemokine CcI5 mRNA: diminished
  Tnfα expression: reduced
  proinflammatory interleukin II1b mRNA: diminished
  proinflammatory interleukin II6 mRNA: diminished
  renal level of Col1a1 gene expression: reduced
  renal level of Col1a2 gene expression: reduced
  renal level of Col3a1 gene expression: reduced
  renal level of Fn gene expression: reduced
  renal level of II11 gene expression: reduced
  renal level of Tgfb1 gene expression: reduced
  renal level of myofibroblast marker Acta2 gene expression: reduced
[8]; vs IgG and wild-type
  tubule damage indicator Kim1 mRNA: restored
  tubule damage indicator Ngal mRNA: restored
Col4a3-/- mice [9]
  serum blood urea nitrogen (BUN): markedly lowered
  serum creatinine (Cr): markedly lowered
  urinary albumin:creatinine ratio (ACR): markedly lowered
[10]
  Caspase 3 activation: reduced
  ERK phosphorylation in kidneys: largely diminished
  Podocin protein level (immunoblotting): restored towards normal
  STAT3 phosphorylation in kidneys: largely diminished
  Wilms' Tumor 1 protein level (immunoblotting): restored towards normal; also recorded: Preservation of podocytes
  alpha-smooth muscle actin (αSMA) protein level (reduction seen on transcript): confirmed at the protein level
  degree of TGFβ upregulation in the kidneys: significantly reduced
  fibronectin protein level (reduction seen on transcript): confirmed at the protein level
Col4a3-/- mice [11]; IgG control 62.5 days, P=0.0015
  median lifespan: 88.5 days
Col4a3-/- mice [11]; vs IgG control
  extension of median life span: 41.6%
